This sample holds only a part of the variants without activity.
B1: TPR 5TU (parent)
chain: GGAUCUUCUCGAUCUAACAAAAAAGACAAAUCUGCCACAAAGCUUGAGAGCAUCUUCGGAUGCAGAGGCGGCAGCCUUCGGUGGCGCGAUAGCGCCAACGUUCUCAACUAUGACACGCAAAACGCGUGCUCCGUUGAAUGGAGUUUAUCAUG

Variants of: B1
Experiment: polymerase ribozyme fitness, log enrichment relative to wild type (log ratio); higher = more active; in vitro selection for triplet polymerase activity
In short: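 The heterodimeric triplet polymerase ribozyme's subunits were each mutagenized into PCR-built libraries and transcribed. Every library was selected once, in triplicate, by annealing with a biotinylated primer, the partner subunit and triplets, incubating frozen at −7 °C, gel-excising extended constructs, capturing on streptavidin beads and running RT-PCR. Input and output libraries were Illumina-sequenced, with genotypes kept only at ≥10 input reads and ≥1 read per output. Fitness, from inverse-variance-weighted replicate averages, is the base-2 logarithm of genotype enrichment over wild-type enrichment.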

Row | Variant | polymerase ribozyme fitness (log ratio)
1 | A20U C32G U56G G81A C93U A107G C131U C132G U135G A147G | ≤ -4.2
2 | C93G C108G A142C C149U U151G | ≤ -4.2
3 | A16G G83U U139G | -1.17
4 | C8U C96G | -2.63
5 | C36G A97G | -3.56
6 | U33C A49G U77G U130A G133U U135A | ≤ -4.2
7 | G94A G141A | 0.172
8 | A28U | -3.38
9 | U31A C38A G50C C85U | ≤ -4.2
10 | C87A U101G G124A A142C | -4.02
11 | G25U C69G G83U C95U | -3
12 | C43U C125G U151G | ≤ -4.2
13 | U77G C93U G117C | ≤ -4.2
14 | G11A U104A A119U G136A U144A | -2.19
15 | A3G C10A A12G G59U A66G C72G C85U | ≤ -4.2
16 | U15G U55G G71C C85U A142U C149U | ≤ -4.2
17 | U82A G126A | 1.28
18 | C5G A17G C38A A47C A60C U82C C95G C123U G143A A147G | ≤ -4.2
19 | U9G G11C C76A G92C U134C U139G A150G | ≤ -4.2
20 | U45A G92C U144A | -3.41
21 | C18U C57U G86A | -1.67
22 | A24U C36G U56A C57A G71U A91C A106C A110G A138G | ≤ -4.2
23 | G80C C131G | -4.04
24 | A24G | -1.75

Row | Variant | polymerase ribozyme fitness (log ratio)
25 | G50A | -1.02
26 | C87G G141C | -3.99
27 | C8U A19C A40G C57U G92U G140A U146A | ≤ -4.2
28 | A19G U33C A49C C54U G81A C87U | ≤ -4.2
29 | A39U G46C G48A G50C U56A G84U | ≤ -4.2
30 | A16C U144G | -0.499
31 | A22U C27U C36U A98U | -3.64
32 | A30C G48C A60G | ≤ -4.2
33 | A21U U31C A73G G94U A113U | -3.49
34 | G48U G92U A121C A150C | ≤ -4.2
35 | C72U C76A G84A C87U A91G A106G C125A | ≤ -4.2
36 | U6A A52C G81U C85G | -3.49
37 | G11U C14U C72U G143A | ≤ -4.2
38 | C54U C75G U78C C79A G80U | ≤ -4.2
39 | G67C G83A C123G | ≤ -4.2
40 | A28C U56A C57A G68A C76A G88U G94A A138C | ≤ -4.2
41 | G50C C75U C93G A115G | ≤ -4.2
42 | U53A C75G U109G U139C | ≤ -4.2
43 | C14A C27G A91C A115G | ≤ -4.2
44 | G59C G71A A115G | -4.09
45 | A37U C103A | -3.85
46 | C54U G86U | -1.78
47 | C14U C57A A89G C96U U101A G136U | ≤ -4.2
48 | C69U C116G | 0.325

Row | Variant | polymerase ribozyme fitness (log ratio)
49 | C8A G48C U55A | ≤ -4.2
50 | A52G G83C C105A | -2.55
51 | A3G C14U G42C G59A C96U A122U U146C | ≤ -4.2
52 | A3G A29G U82A | ≤ -4.2
53 | A49U G83A U145A | -1.1
54 | A52C G58U G65U C69A G80C C103A C108G | ≤ -4.2
55 | U31A A49G C105U | -0.707
56 | A19G A41C G42C A49C U90C U127A | ≤ -4.2
57 | A16C A49U C85A G126U U139G | -3.47
58 | C75A U135C | ≤ -4.2
59 | C57U A91C | ≤ -4.2
60 | A22U U56A A64G A122U C123G A150G | ≤ -4.2
61 | G50C C51U C87U G152U | ≤ -4.2
62 | U45G G86U C87A | ≤ -4.2
63 | G74U C85G C99A A107U C125A | ≤ -4.2
64 | A52C U101G | -1.56
65 | C93G A115G C131U | -3.48
66 | C18G U31C G59C G81A C116G A138G | -4.15
67 | C32A C35U C69A C75U A150G | ≤ -4.2
68 | A29C G59A G94U U102A A106G G141A | ≤ -4.2
69 | G84A C123U | -0.156
70 | G11A A26C U90G | ≤ -4.2
71 | U55G G92U U139G U146G | -1.4
72 | U45G A47C A142G | -3.91

Row | Variant | polymerase ribozyme fitness (log ratio)
73 | U7G A40U A66C G81C A120G U146G | ≤ -4.2
74 | G42U G84U U134C U139G | ≤ -4.2
75 | G25A U61A | -3.19
76 | G80C C95U C118G | ≤ -4.2
77 | G11A C114G G124U | -4.03
78 | A40U A106G | 0.3
79 | A39C C118G | -2.92
80 | U90G G100A C116U | ≤ -4.2
81 | C36U U55A A97G A121G U134G | -3.22
82 | U33G G83C | -3.6
83 | A20C C93G | -3.89
84 | A37C C75G G80A C149G | ≤ -4.2
85 | G84U U134A A142C | ≤ -4.2
86 | A12G C14G A17G C75U A91G C105U A106G A121U A137U | ≤ -4.2
87 | C35U G117U | 0.973
88 | U31G U56A G80C C87G C99G | ≤ -4.2
89 | G92U | -0.671
90 | U53G U90G G100A G124A U144C | ≤ -4.2
91 | C51U G84U | -1.52
92 | A64U C87U G100C U135G A150G | ≤ -4.2
93 | U6A C8A A12G C43U A64C G86C C87A | ≤ -4.2
94 | A37G C85U | -2.1
95 | C54U C93U C96G U135A | -3.57
96 | C8G C125A | -3.82

Row | Variant | polymerase ribozyme fitness (log ratio)
97 | A28C G46C G84A C85U C96U C116U C149U | ≤ -4.2
98 | A12C C125U | -0.492
99 | A138U A147U | -3.38
100 | C43U U61A G86U A142G A147U | ≤ -4.2
101 | U9A A23C U31G A73U C93G A106G G117A G133A A150G | ≤ -4.2
102 | U6C U61A G68C G84A G88U A121G G124A | ≤ -4.2
103 | A24U C96U G117A G133A U145A | ≤ -4.2
104 | C43U A47G A64C G67U C96U G141A | ≤ -4.2
105 | A28C A39U C103U C116G U139G | ≤ -4.2
106 | A41U G83U G84U A98U A120U G124A | -3.95
107 | A17U G58C C95U C99A | -1.96
108 | A26U G48C A49U A64C U90G A137G | -4.11
109 | A17C C38A A47G G92C | -0.622
110 | G50A G68A C96G C99U G136A | ≤ -4.2
111 | C18G C54U U56A A73G A91G | -3.27
112 | U31G C57G G58A A106G U111G G143U U144A | ≤ -4.2
113 | U13G A47C G88C A91U C105U | ≤ -4.2
114 | C51U U56A A73U U78G A91U G141C G152A | -3.97
115 | C14A A37U A52G G83A G84A A115U | ≤ -4.2
116 | A40U A49C C72A C95U C99G A138C | ≤ -4.2
117 | C32U C54U | -1.22
118 | U33A C85U U146G A147U A150G | ≤ -4.2
119 | G81C C103U U134G | -2.49
120 | C57U A138U U145G | -3.98

Row | Variant | polymerase ribozyme fitness (log ratio)
121 | A40C U55G G58A U130A U135C | ≤ -4.2
122 | A20C A60G | -0.605
123 | C36G U55G A73U C108U C118A G133U | -4.17
124 | A20G A91G U146A | -3.96
125 | G48C C99U | -1.72
126 | A49U U82G | -0.129
127 | C85A C129G | -2.95
128 | C96A A115U A147C | -3.48
129 | U9A A24U A121U A122U G141A | ≤ -4.2
130 | A41C U61A G143C | -3.94
131 | C35A U53A U61A G62C A64G A66C C87G G152U | ≤ -4.2
132 | C36U A41G C95A A122G | -0.35
133 | U61A A122G G140C | ≤ -4.2
134 | U45A U77G G83C U146A | ≤ -4.2
135 | C118A U144A | 0.0258
136 | G34U A39U C43A C85U G117A | -3.98
137 | A37U U55G A60G C85G A107C C131U | ≤ -4.2
138 | A19G C87G G92A U134A | ≤ -4.2
139 | C51U C93G U130C U145A | -3.53
140 | U61A G68A | ≤ -4.2
141 | U15C A19C C85U C87U | 0.246
142 | U53A G58A A73U C75A A89U G92U A110U G126U G140A A147U | ≤ -4.2
143 | C85U C125U | -0.156
144 | C51A G86U C108G A137C | ≤ -4.2

Row | Variant | polymerase ribozyme fitness (log ratio)
145 | C85A A89G U146C | -2.83
146 | A21G U77G G88C U135G G143U A147C | ≤ -4.2
147 | A37G U78A C93G C116U | ≤ -4.2
148 | C14A C54U G83U C95U U111G U134G | ≤ -4.2
149 | C35G A47C C69G U77G U82C C103G G128U U130G U151C | ≤ -4.2
150 | C10U G42U A64U C93A A106U C123U G140A | ≤ -4.2
151 | A24U G25A A39G A60U G83C | ≤ -4.2
152 | C8G G34U A73C C85G U148G | ≤ -4.2
153 | A12G U77C | -3.98
154 | U31A U53A G68U C95A C149G | ≤ -4.2
155 | A49G C51U C95G A137G U144A | ≤ -4.2
156 | A12U A16C C57G G81A U104G A115G | ≤ -4.2
157 | C57A C87A C116G U127A C129U A137G C149U | ≤ -4.2
158 | A60C G81A C87A G133C G143A U148A | ≤ -4.2
159 | A47U U55G | -1.03
160 | C93A U134C | -1.59
161 | U56A C93U C116U | -1.11
162 | G62A | -0.367
163 | G83C C93U C96A | -1.71
164 | A23G C54A U55G G58A G59C | -4.08
165 | U15C G46A G59A C93A | -3.01
166 | A47G A52C A73G C76G C87G A98G | ≤ -4.2
167 | U13G A49U | -2.21

Source: the RNAGym collection of RNA variant scans (doi:10.1073/pnas.2313332121)
